According to patent US6013499, “Rho target protein kinase p160” (Kirin Beer Kabushiki Kaisha, dated 2000):

B1: M2-9 (906-1004) fused to the VP16-activation domain (yeast two hybrid) (other)
chain: RGLLEEQYFELTQESKKAASRNRQEITDKDHTVSRLEEANSMLTKDIEILRRENEELTEKMKKAEEEYKLEKEEEISNLKAAFEKNINTERTLKTQAVN
B2: M2-6 (974-1024) fused to the VP16-activation domain (yeast two hybrid) (other)
chain: KLEKEEEISNLKAAFEKNINTERTLKTQAVNKLAEIMNRKDFKIDRKKANT

Target: RhoA fused to LexA DNA-binding domain (yeast two hybrid) (human)
Experiment: yeast two hybrid, β-galactosidase activity

Row | Binder | binding result
1 | B1 | no binding
2 | B2 | no binding
